Reference: patent US6013453, “Binding proteins for recognition of DNA” (Medical Research Council)

Target: anti-BCR-ABL 1A-2A-3B/VP16 fusion (synthetic construct)
Experiment: cell_activity; C3H10T1/2 cells
Description: Having established DNA discrimination in vitro, the inventors wished to test whether the anti-BCR-ABL peptide was capable of site-specific DNA-binding in vivo. The peptide was fused to the VP16 activation domain from herpes simplex virus (Fields 1993 Methods 5, 116–124) and used in transient transfection assays (FIG. 9) to drive production of a CAT (chloramphenicol acetyl transferase) reporter gene from a binding site upstream of the TATA box (Gorman et al., Mol. Cell. Biol. 2, 1044–1051). In detail the experiment was performed thus: reporter plasmids pMCAT6BA, pMCAT6A, and pMCAT6B, were constructed by inserting 6 copies of the p190^BCR-ABL target site ([…], SEQ ID No. 121), the c-ABL second exon-intron junction sequence ([…], Seq ID No. 122), or the BCR first exon-intron junction sequence ([…] Seq ID No. 123) respectively, into pMCAT3 (Luscher et al., 1989 Genes Dev. 3, 1507–1517). The anti-BCR-ABL/VP16 expression vector was generated by inserting the in-frame fusion between the activation domain of herpes simplex virus VP16 (Fields 1993) and the Zn finger peptide in the pEF-BOS vector (Mizushima & Shigezaku 1990 Nucl. Acids Res. 18, 5322). C3H10T1/2 cells were transiently co-transfected with […] of reporter plasmid and […] of expression vector. […]

B1: p190 BCR-ABL site x6 reporter pMCAT6BA (dsDNA)
DNA 1: CGCAGAAGCC
DNA 2: GGCTTCTGCG
  activity: ~30 fold CAT activation
